Measurements published in article PMC11665613 (2024).

Tests used:
Experiment in all cases: MST
[1] = molecular target: NCP3, nucleosome core particle with 3xFLAG-H3Kc36me3 (X. laevis | , Kc36me3 (trimethyllysine mimic on cysteine at position 36))
[2] = molecular target: NCP2, nucleosome core particle with 3xFLAG-H3K36NleCTMS (X. laevis | , cysteine at position 36 alkylated with vinyl cyclic sulfonium 5 (NleCTMS))
[3] = molecular target: NCP1, nucleosome core particle with 3xFLAG-H3K36NleCS+me2 (X. laevis | , cysteine at position 36 alkylated with vinyl dimethylsulfonium 4 (NleCS+me2))

Kd [1] [µM] | Kd [2] [µM] | Kd [3] [µM] | Binder
1.4 | 1.2 | 0.52 | PWWP domain of LEDGF (domain or fragment) not shown
1.4 | 1.6 | 1.1 | PWWP domain of NSD2 (domain or fragment) VGDLVWSKVSGYPWWPCMVSADPLLHSYTKLKGQKKSARQYHVQFFGDAPERAWIFEKSLVAFEG
